Series [1] deals with the molecule itself. The experiment in a line: cryo-EM structure; IstB wild type with a 60-mer duplex DNA (6.5:1) and 1 mM ATP; 20 mM HEPES pH 7.5, 150 mM NaCl, 5 mM MgCl2, 1 mM DTT; 3.2 Å.
Series [2] concerns the molecule itself. The experiment in a line: cryo-EM structure; IstA pre-incubated with strand-transfer-complex DNA (3.3:1), then IstB E167Q (5:1 to IstA), 37 °C; 20 mM HEPES pH 7.5, 150 mM NaCl, 5 mM MgCl2, 1 mM ATP, 1 mM DTT; 3.6 Å.

These results are taken from publication PMC11208146, “Molecular basis for transposase activation by a dedicated AAA+ ATPase” (Nature, 2024).

Values joined by “and” are separate entries in the source; they are usually repeats but may differ in a detail not shown here. Identical values can stand only once.

By stoichiometry N is commonly meant a count of units in the complex or per binding partner.

B1: IstB ATPase, wild type, full length (IS5376, Geobacillus stearothermophilus) (enzyme, UniProt Q45619 1-251, looked up)
chain: MKERIHEYCHRLHLPVMAERWSAMAEYASTHNISYSEFLFRLLEAEIVEKQARSIQTLIKLSKLPYRKTIDTFDFTAQPSVDERRIRELLTLSFIDRKENILFLGPPGIGKTHLAISIGMEAIARGYKTYFITAHDLVNQLRRADQEGKLEKKLRVFVKPTVLIIDEMGYLKLDPNSAHYLFQVIARRYEHAPIILTSNKSFGEWGEIVGDSVLATAMLDRLLHHSIIFNLKGESYRLREKRLQEEKQKDQ
notes: IstB, AAA+ ATPase of the IS21 family member IS5376, Geobacillus stearothermophilus, full length; Tag cleaved on-column with PreScission protease; Assembles into a pentamer of dimers (decamer) on DNA with ATP; also called IstB WT; IstB AAA+ ATPase regulator; source: E. coli BL21 codon-plus (DE3) RIL, purified (Ni-Sepharose, amylose resin, gel filtration); not shown: His6, N-terminal, cleaved; MBP, …
For B1, the “stoichiometry N” value in series [1] is 10 and 8.

B2: IstB E167Q (Walker B mutant) (enzyme, Geobacillus stearothermophilus, UniProt Q45619 1-251, looked up)
chain: MKERIHEYCHRLHLPVMAERWSAMAEYASTHNISYSEFLFRLLEAEIVEKQARSIQTLIKLSKLPYRKTIDTFDFTAQPSVDERRIRELLTLSFIDRKENILFLGPPGIGKTHLAISIGMEAIARGYKTYFITAHDLVNQLRRADQEGKLEKKLRVFVKPTVLIIDQMGYLKLDPNSAHYLFQVIARRYEHAPIILTSNKSFGEWGEIVGDSVLATAMLDRLLHHSIIFNLKGESYRLREKRLQEEKQKDQ
notes: IstB, AAA+ ATPase of IS5376, Geobacillus stearothermophilus, with the Walker B mutation E167Q; The methods describe only the purification of full-length IstB (His6-MBP tag, cleaved); also called WB; source: purified
Regarding B2, in series [2], the “stoichiometry N” value was 10 and 20.
